Test results taken from patent publication US20210079115A1 (Janssen / Centocor, published 2021).

Target: full length human PSMA on cells (LNCaP, C4-2B, LNCaP AR, 22RV1 prostate tumor cells; human tissue) (human, UniProt Q04609 1-750)
Assay: cell-based or functional assay

Chain of full length human PSMA on cells (LNCaP, C4-2B, LNCaP AR, 22RV1 prostate tumor cells; human tissue) (Q04609 whole entry): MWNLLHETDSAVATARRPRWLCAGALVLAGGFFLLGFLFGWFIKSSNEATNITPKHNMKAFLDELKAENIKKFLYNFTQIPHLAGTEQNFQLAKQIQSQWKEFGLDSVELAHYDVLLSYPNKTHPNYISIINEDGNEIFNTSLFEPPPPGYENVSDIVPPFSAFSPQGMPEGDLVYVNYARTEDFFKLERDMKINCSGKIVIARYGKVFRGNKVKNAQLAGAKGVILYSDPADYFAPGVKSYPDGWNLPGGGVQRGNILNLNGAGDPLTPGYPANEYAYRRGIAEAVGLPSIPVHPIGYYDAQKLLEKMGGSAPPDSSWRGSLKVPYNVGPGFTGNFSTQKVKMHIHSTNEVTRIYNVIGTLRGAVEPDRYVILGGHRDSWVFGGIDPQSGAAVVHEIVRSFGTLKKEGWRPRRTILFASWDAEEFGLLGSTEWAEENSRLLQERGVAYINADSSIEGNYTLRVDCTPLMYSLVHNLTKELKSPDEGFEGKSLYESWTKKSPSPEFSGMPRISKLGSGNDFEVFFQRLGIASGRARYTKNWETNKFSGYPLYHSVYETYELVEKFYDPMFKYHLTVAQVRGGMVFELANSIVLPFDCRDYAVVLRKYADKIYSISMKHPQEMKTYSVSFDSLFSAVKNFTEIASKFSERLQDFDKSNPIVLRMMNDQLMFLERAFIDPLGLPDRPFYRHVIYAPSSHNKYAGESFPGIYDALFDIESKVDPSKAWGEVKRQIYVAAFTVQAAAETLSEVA

B1: PS3B27 PSMA×CD3 bispecific antibody (PSMB127 × CD3B219) (bispecific antibody, human IgG4 S228P, kappa, lambda, F234A L235A)
heavy 1: not shown
light 1: not shown
heavy 2: EVQLVESGGGLVQPGGSLRLSCAASGFTFNTYAMNWVRQAPGKGLEWVARIRSKYNNYATYYAASVKGRFTISRDDSKNSLYLQMNSLKTEDTAVYYCARHGNFGNSYVSWFAYWGQGTLVTVSSASTKGPSVFPLAPCSRSTSESTAALGCLVKDYFPEPVTVSWNSGALTSGVHTFPAVLQSSGLYSLSSVVTVPSSSLGTKTYTCNVDHKPSNTKVDKRVESKYGPPCPPCPAPEAAGGPSVFLFPPKPKDTLMISRTPEVTCVVVDVSQEDPEVQFNWYVDGVEVHNAKTKPREEQFNSTYRVVSVLTVLHQDWLNGKEYKCKVSNKGLPSSIEKTISKAKGQPREPQVYTLPPSQEEMTKNQVSLTCLVKGFYPSDIAVEWESNGQPENNYKTTPPVLDSDGSFLLYSKLTVDKSRWQEGNVFSCSVMHEALHNHYTQKSLSLSLGK
light 2: QTVVTQEPSLTVSPGGTVTLTCRSSTGAVTTSNYANWVQQKPGQAPRGLIGGTNKRAPGTPARFSGSLLGGKAALTLSGVQPEDEAEYYCALWYSNLWVFGGGTKLTVLGQPKAAPSVTLFPPSSEELQANKATLVCLISDFYPGAVTVAWKADSSPVKAGVETTTPSKQSNNKYAASSYLSLTPEQWKSHRSYSCQVTHEGSTVEKTVAPTECS
B1 was tested, and the “T cell activation (CD25 expression) median EC50, C4-2B cells co-cultured with donor T cells, 48 hours” value was 0.06 nM and the “T cell dependent cytotoxicity median EC50, C4-2B cells, E:T 3:1, 72 hours” value was 0.08 nM.
